{
  "source": "patent US9895420",
  "proteins": {"B1": {"name": "neutrophil elastase (Athens Research & Technology) (protein)", "chain": "IVGGRRARPHAWPFMVSLQLRGGHFCGATLIAPNFVMSAAHCVANVNVRAVRVVLGAHNLSRREPTRQVFAVQRIFENGYDPVNLLNDIVILQLNGSATINANVQVAQLPAQGRRLGNGVQCLAMGWGLLGRNRGIASVLQELNVTVVTSLCRRSNVCTLVRGRQAGVCFGDSGSPLVCNGLIHGIASFVRGGCASGLYPDAFAPVAQFVNWIDSIIQ"}},
  "target": "chimeric-IL-1Ra (IL-1beta propeptide residues 1-120, HindIII-derived Lys-Leu linker, mature IL-1Ra)",
  "data": [
    {"protein": "B1", "values": [
      {"measurement": "cleavage of chimeric-IL-1Ra, Western blot with anti-IL-1Ra antibody", "result": "chimeric-IL-1Ra is cleaved to form a ˜20 kDa fragment, comparable in size to IL-1Ra"}
    ]}
  ]
}
